Source: US20210252159A1, “CONJUGATES OF CARTILAGE-HOMING PEPTIDES” (priority 2018, published 2021)
Positions of bridges follow the written chain, without caps; N, C: chain ends. Residues, ends and D or L forms follow the SMILES beside them. *: point of attachment. X4 = C[C@@H]1C[C@H]2[C@@H]3CCC4=CC(=O)C=C[C@]4(C)[C@@]3(F)[C@@H](O)C[C@]2(C)[C@@]1(O)C(=O)COC(=O)[C@H]1CC[C@H](C(=O)*)CC1

How the values were obtained:
[1] = Hydrolysis assay of peptide-drug conjugates in human plasma (free Dex by LC/MS); format: in vitro ADME; conditions: 37° C., release of free Dex, time points to 32 hr, read-out: Half-life (hours) as measured in the hydrolysis experiments (converted)
Protocol: In order to determine hydrolysis rates, conjugates can be diluted in PBS, rat plasma, or human plasma and incubated at 37 degrees. Samples can be taken at designated time-points (e.g., 1, 2, 3, 5, 10, 15, 20, 25, 30, 45, 60, or 90 minutes and/or hours after administration). Internal standards such as triamcinolone acetonide (TAA) can be added as an internal standard, and then active agent/TAA can be extracted using acetonitrile, for example. The samples can be dried down, reconstituted, and analyzed by LC/MS. Data can be normalized using Dex AUC/TAA AUC. Percent hydrolysis can be calculated using the average ratio for active agent AUC/TAA AUC at a time point of maximal drug release. A general method can include using a lyophilized, purified peptide-drug conjugates reconstituted in DMSO following production to generate stock solution at 20 mg/mL. Each conjugate stock can be brought to 0.25 mg/mL in each hydrolysis condition (1×DPBS, human plasma and rat plasma) in triplicate and rocked at 37° C. To quantitate free active agent, 100 μl of the hydrolyzed conjugate solution can be transferred into 1 mL acetonitrile at 4° C. at which time all plasma proteins and intact conjugates can precipitate. This can be performed repeatedly to generate a series of time points (0 hr, 0.5 hr, 1 hr, 2 hr, 4 hr, 6 hr, 8 hr, 24 hr, 32 hr). The acetonitrile solution can be spun at 17,000 g for 5 minutes, and the supernatant removed and added to a 96 well block. The pellet can then be resuspended in 500 μl acetonitrile and re-pelleted as before. The supernatant can be removed and added to the same well in the block. Samples can be prepared for analysis by drying under a nitrogen stream followed by reconstitution in 110 μl 45:55 ACN:Citrate 10 mM pH 5.5. […] Quantification of free active agent (or drug) can be achieved through integration of active agent peaks of the TIC. […]
To quantitate free dexamethasone (Dex), 100 μl of the hydrolyzed conjugate solution was transferred into 1 mL acetonitrile at 4° C. at which time all plasma proteins and intact conjugates precipitated. […]

[2] = Hydrolysis assay of peptide-drug conjugates in rat plasma (free drug by LC/MS); format: in vitro ADME; conditions: 37° C.
Protocol: Peptide-drug conjugate peptide(SEQ ID NO: 105)-DMA-dCIC was incubated in rat plasma at 37° C. Samples were removed at regular intervals, processed by solvent extraction, and analyzed by LC/MS to quantitate free dCIC. 11 time-points were measured between 5 min and 56 hours with 3 replicates per time point. The assay was repeated two times.
(§1) In order to determine hydrolysis rates, conjugates can be diluted in PBS, rat plasma, or human plasma and incubated at 37 degrees. Samples can be taken at designated time-points (e.g., 1, 2, 3, 5, 10, 15, 20, 25, 30, 45, 60, or 90 minutes and/or hours after administration). Internal standards such as triamcinolone acetonide (TAA) can be added as an internal standard, and then active agent/TAA can be extracted using acetonitrile, for example. The samples can be dried down, reconstituted, and analyzed by LC/MS. Data can be normalized using Dex AUC/TAA AUC. Percent hydrolysis can be calculated using the average ratio for active agent AUC/TAA AUC at a time point of maximal drug release. A general method can include using a lyophilized, purified peptide-drug conjugates reconstituted in DMSO following production to generate stock solution at 20 mg/mL. Each conjugate stock can be brought to 0.25 mg/mL in each hydrolysis condition (1×DPBS, human plasma and rat plasma) in triplicate and rocked at 37° C. To quantitate free active agent, 100 μl of the hydrolyzed conjugate solution can be transferred into 1 mL acetonitrile at 4° C. at which time all plasma proteins and intact conjugates can precipitate. This can be performed repeatedly to generate a series of time points (0 hr, 0.5 hr, 1 hr, 2 hr, 4 hr, 6 hr, 8 hr, 24 hr, 32 hr). The acetonitrile solution can be spun at 17,000 g for 5 minutes, and the supernatant removed and added to a 96 well block. The pellet can then be resuspended in 500 μl acetonitrile and re-pelleted as before. The supernatant can be removed and added to the same well in the block. Samples can be prepared for analysis by drying under a nitrogen stream followed by reconstitution in 110 μl 45:55 ACN:Citrate 10 mM pH 5.5. To ensure optimal recovery the block can be shaken via plate shaker at 7,000 rpm for 5 minutes during the reconstitution step. Prior to LC/MS the samples can be transferred to a 96 well plate and centrifuged at 6,500 g for 15 minutes. Analysis can be performed on an Agilent 1260 Infinity series HPLC with inline 6120 single quad MS using acetonitrile, water (+0.1% TFA) gradient (shown below) on an InfinityLab Poroshell SB-C18 column. Quantification of free active agent (or drug) can be achieved through integration of active agent peaks of the TIC.
(§2) Lyophilized, purified peptide-drug conjugates were reconstituted in DMSO following production to generate stock solution at 20 mg/mL. Each conjugate stock was brought to 0.25 mg/mL in each hydrolysis condition (1×DPBS, human plasma and rat plasma) in triplicate and rocked at 37° C.
(§3) To quantitate free dexamethasone (Dex), 100 μl of the hydrolyzed conjugate solution was transferred into 1 mL acetonitrile at 4° C. at which time all plasma proteins and intact conjugates precipitated. This was performed repeatedly to generate a series of time points (0 hr, 0.5 hr, 1 hr, 2 hr, 4 hr, 6 hr, 8 hr, 24 hr, 32 hr). The corticosteroid triamcinolone acetonide (25 μl, 0.1 mg/mL in 45:55 ACN:Citrate 10 mM pH 5.5) was supplemented into the acetonitrile solution as an internal standard. The acetonitrile solution was spun at 17,000 g for 5 minutes, and the supernatant removed and added to a 96 well block. The pellet was resuspended in 500 μl acetonitrile and re-pelleted as before. The supernatant was removed and added to the same well in the block.
Samples were prepared for analysis by drying under a nitrogen stream followed by reconstitution in 110 μl 45:55 ACN:Citrate 10 mM pH 5.5. To ensure optimal recovery the block was shaken via plate shaker at 7,000 rpm for 5 minutes during the reconstitution step. […]

[3] = Hydrolysis assay of peptide-drug conjugates in PBS (free Dex by LC/MS); format: physicochemical; conditions: 37° C.
Protocol: as §1, §2, §3
Samples were prepared for analysis by drying under a nitrogen stream followed by reconstitution in 110 μl 45:55 ACN:Citrate 10 mM pH 5.5. To ensure optimal recovery the block was shaken via plate shaker at 7,000 rpm for 5 minutes during the reconstitution step. Prior to LC/MS the samples were transferred to a 96 well plate and centrifuged at 6,500 g for 15 minutes. Analysis was performed on an Agilent 1260 Infinity series HPLC with inline 6120 single quad MS using a gradient of 0.1% TFA in acetonitrile (solvent B), and 0.1% TFA (aq) (solvent A) gradient (shown below) on an InfinityLab Poroshell SB-C18 column. […]

CIA rats = system: CIA rats
Protocol: Arthritis was induced in 9-week-old female Lewis rats (Envigo or Charles River Laboratories) by intradermal injection while anesthetized of 400 ug bovine type II collagen (Chondrex Inc, Redmond Wash.) in 2 adjacent 200 ul (1 mg/ml) doses on day 0. Collagen is prepared for injection by dissolving at 2 mg/ml in 0.01N glacial acetic acid in sterile water and rocking at 4° C. overnight then emulsifying in Freund's incomplete adjuvant (IFA, Sigma Aldrich). To emulsify, equal volumes of collagen solution and IFA are drawn up into separate syringes, which are joined by a 3-way stopcock. While on ice, the collagen and IFA are mixed by pressing between the two syringes rapidly for 10 minutes. Quality of the emulsification is tested after 10 minutes of mixing by dropping a small amount of mixture in water. A properly emulsified solution will remain as a discrete droplet and not disperse in the water. On day 7, rats are challenged with a second intradermal injection of 100 ug of collagen in 100 ul, 1 mg/ml, collagen in IFA solution prepared fresh. Body weight and ankle diameter measurements are recorded daily from day 7 through the end of the study. Ankle diameter was measure by a single researcher using a Fowler Digitrix 2 micrometer. Three measurements of each ankle were taken of the lateral dimension at the tarsus of lightly anesthetized rats. The reported ankle diameter measurement is the mean of the three measurements.
Arthritis was induced as described in four cohorts of 9-week-old female Lewis rats. Rats were randomly placed in treatment groups, balancing compound and dose groups across cohorts. […] Rats were dosed by tail vein injection on days 11 and 12 and euthanized on day 13 by CO2 asphyxiation. Immediately after cessation of respiratory movement, blood was collected by cardiac puncture, synovial fluid was collected from both knees, one hind limb was fixed in formalin and the alternate ankle was frozen on dry ice. Thymus, spleen, liver, and kidney weights were recorded.
CIA Response study design.
The aim of the study was to test the 4 conjugates with various linkers at two different doses in vivo in CIA rats to assess the following: ability to deliver sufficient dexamethasone to the joint to show functionality and potential therapeutic effect in the disease model.
CIA was induced in female Lewis rats (as described above, see EXAMPLE 21). Body weight and ankle joint diameters were measured on day 0 and then daily from day 7 until euthanasia. […] At euthanasia, synovial fluid was collected from both knees, one hind limb was fixed in formalin and the alternate ankle was frozen on dry ice. Thymus, spleen, liver, and kidney weights were recorded. Blood samples were submitted for CBC/Chemistry analysis, and the remaining plasma was frozen.

CC[C@H](C)[C@@H]1NC(=O)[C@@H]2CSSC[C@H](NC(=O)[C@H](CCCNC(=N)N)NC(=O)[C@@H](NC(=O)[C@H](CC(N)=O)NC(=O)[C@@H](NC(=O)[C@@H]3CCCN3C(=O)[C@@H](NC(=O)CNC(=O)[C@H](CO)NC(=O)CNC(=O)[C@H]3CC[C@H](C(=O)OCC(=O)[C@@]4(O)[C@H](C)C[C@H]5[C@@H]6CCC7=CC(=O)C=C[C@]7(C)[C@@]6(F)[C@@H](O)C[C@@]54C)CC3)C(C)C)[C@@H](C)CC)C(C)C)C(=O)N[C@@H](CCCNC(=N)N)C(=O)NCC(=O)N[C@@H](CO)C(=O)N[C@@H](CCCNC(=N)N)C(=O)N[C@@H](CC(=O)O)C(=O)N[C@H]3CSSC[C@H](NC(=O)[C@H](CCCNC(=N)N)NC(=O)[C@H](CO)NC(=O)[C@H](CC(N)=O)NC1=O)C(=O)N[C@@H](Cc1c[nH]cn1)C(=O)N[C@H](C(=O)N[C@H](C(=O)N1CCC[C@H]1C(=O)O)[C@@H](C)O)CSSC[C@H](NC(=O)[C@@H]1CCCN1C(=O)[C@H](CC(=O)O)NC(=O)[C@H](CC(C)C)NC3=O)C(=O)N[C@@H](CCCNC(=N)N)C(=O)N[C@@H](CCCNC(=N)N)C(=O)N[C@@H](C)C(=O)NCC(=O)N[C@@H](CCSC)C(=O)N[C@@H](CCCNC(=N)N)C(=O)N[C@@H](Cc1ccccc1)C(=O)NCC(=O)N[C@@H](CCCNC(=N)N)C(=O)N2 [Compound 25, Peptide(SEQ ID NO: 105)-trans-1,4-cyclohexyl-Dex] (X4-GSGVPINVRCRGSRDCLDPCRRAGMRFGRCINSRCHCTP-OH; disulfide 10-30, 16-35, 20-37 (inferred); C-terminus assumed)
half-life at 0.25 mg/mL [1]: 21.3 h | half-life at 0.25 mg/mL ([2]; Rat Plasma, release of free Dex, time points to 32 hr, read-out: Half-life (hours) as measured in the hydrolysis experiments (converted)): 3.4 h | half-life at 0.25 mg/mL ([2]; in rat plasma, free Dex, read-out: Hydrolysis half-life (converted)): 3.4 h | Half-life (hours) as measured in the hydrolysis experiments ([3]; PBS, release of free Dex, time points to 32 hr): undetectable ≤32 | Hydrolysis half-life ([3]; in PBS, free Dex): No Dex release ≤32 h | ankle swelling over time as compared to vehicle (CIA rats; 0.2 mg/kg and 0.5 mg/kg Dex equivalents IV days 11 and 12): reduction in ankle swelling | spleen weight (CIA rats; 0.2 mg/kg and 0.5 mg/kg dose): reduction | thymus weight (CIA rats; 0.2 mg/kg and 0.5 mg/kg dose): reduction | total body weight (CIA rats; 0.2 mg/kg and 0.5 mg/kg dose): reduction | change in median ankle diameter between day 11 and day 13 as compared to vehicle (CIA rats; 0.2 mg/kg dose): statistically significant reduction in ankle diameter | difference from Dex in change in ankle diameter (CIA rats; 0.2 mg/kg dose): no statistically significant difference | reduction in thymus weight as compared to vehicle (CIA rats; 0.2 mg/kg dose groups): statistically significant
